Reference: patent publication US20230052168A1 (ROYAL COLLEGE OF SURGEIONS IN IRELAND, published 2023)
Numbering of substitutions follows the chain as printed. Names and notes keep the numbering of the source.

How the values were obtained:
protein C (zymogen) [1] = biological target: T1, protein C (zymogen) (UniProt P04070 43-461); experiment: inferred from APC generation assay on endothelial cells with E86A control
T1 construct: also called PC
Experimental: (§1) Protein C (100 nM) and thrombin (5 nM) were added with h-sEPCR^Snoop (1 μM) or h-sEPCR-E86A^Snoop (1 μM) an sEPCR variant unable to bind to PC/APC, then incubated for 30 minutes. […] The net effect of this restriction of APC generation. Statistical analysis of experimental data was performed using one-way ANOVA and Tukey's multiple comparison post hoc analysis. ns signifies non-significant, * signifies a p value of <0.05.
as §1, with “Assessment of h-sEPCR^Snoop Inhibition of Protein C Activation by the Thrombin-Thrombomodulin Complex on Endothelial Cells Protein” for “Protein”, “h-sEPCR-E86ASnoop” for “h-sEPCR-E86A^Snoop”, “<0.05 (see FIG. 5).” for “<0.05.”

protein C (zymogen) [2] = biological target: T1, protein C (zymogen); experiment: control in APC generation assay on endothelial cells (protein C 100 nM, thrombin 5 nM)
Experimental: as §1
as §1, with “Assessment of h-sEPCR^Snoop Inhibition of Protein C Activation by the Thrombin-Thrombomodulin Complex on Endothelial Cells Protein” for “Protein”, “h-sEPCR-E86ASnoop” for “h-sEPCR-E86A^Snoop”, “<0.05 (see FIG. 5).” for “<0.05.”

T1 sequence (P04070 43-461): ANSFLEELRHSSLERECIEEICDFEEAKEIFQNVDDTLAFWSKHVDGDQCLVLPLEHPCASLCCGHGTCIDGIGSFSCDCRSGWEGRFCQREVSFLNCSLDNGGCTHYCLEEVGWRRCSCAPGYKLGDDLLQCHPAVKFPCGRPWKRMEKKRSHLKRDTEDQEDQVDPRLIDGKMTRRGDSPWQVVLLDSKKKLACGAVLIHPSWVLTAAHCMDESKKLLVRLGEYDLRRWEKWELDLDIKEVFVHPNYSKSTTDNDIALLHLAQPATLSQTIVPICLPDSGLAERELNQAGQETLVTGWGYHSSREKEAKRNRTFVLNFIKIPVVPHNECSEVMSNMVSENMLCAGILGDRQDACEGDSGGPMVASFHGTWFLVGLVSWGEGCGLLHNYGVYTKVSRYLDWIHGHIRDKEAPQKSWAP

B1: h-sEPCR^Snoop (recombinant human soluble endothelial cell protein C receptor with GSGGSG linker, SnoopTag and C-terminal His-tag) (receptor)
chain: SQDASDGLQRLHMLQISYFRDPYHVWYQGNASLGGHLTHVLEGPDTNTTIIQLQPLQEPESWARTQSGLQSYLLQFHGLVRLVHQERTLAFPLTIRCFLGCELPPEGSRAHVFFEVAVNGSSFVSFRPERALWQADTQVTSGVVTFTLQQLNAYNRTRYELREFLEDTCVQYVQKHISAENTKGSQTSRSYTSGSGGSGKLGDIEFIKVNKHHHHHH
notes: Expressed in HEK293 cells, purified on nickel; The printed entry still carries the N-terminal signal peptide; also called human sEPCR^Snoop; r-sEPCR
Q: Does B1 bind (protein C (zymogen) [1])?
A: Result: binds

B2: h-sEPCR-E86A^Snoop (receptor)
chain: B1 chain with E86A
Q: Does B2 bind (protein C (zymogen) [2])?
A: Result: no binding (tested: 1 µM)
